Data on one molecule can be found in paper PMC3789969, “The Allosteric Role of the AAA^+ Domain of ChlD Protein from the Magnesium Chelatase of Synechocystis Species PCC 6803*” (The Journal of Biological Chemistry, 2013).

What all share (conditions): both partners purified
The target of assay [1] is T1, His6-ChlD (R208A), arginine finger mutant (Synechocystis sp. PCC 6803, UniProt P72772 1-676, R208A).
T1 construct: Magnesium chelatase subunit ChlD, Synechocystis sp; PCC 6803, with R208A removing the arginine finger; Same construct as m2 with one point mutation; also called R208A mutant; source: Rosetta2(DE3) pLysS, site-directed mutant (QuikChange) of pET9a-His6ChlD, purified
Briefly: chelatase assembly titration (steady-state enzyme activity); apparent; ChlI titrated against 0.1 μM His6-ChlD with 0.4 μM ChlH, steady-state rate of MgDIX formation fitted to Equation 3; 50 mM MOPS/KOH, 0.3 M glycerol, 1 mM DTT, 10 mM free Mg2+, I = 0.1 with KCl, 8 μM DIX, pH 7.7, 34 °C.

The target of assay [2] is T2, His6-ChlD (R289A), Sensor II mutant (Synechocystis sp. PCC 6803, UniProt P72772 1-676, R289A).
T2 construct: Magnesium chelatase subunit ChlD, Synechocystis sp; PCC 6803, with R289A removing the Sensor II arginine; Same construct as m2 with one point mutation; also called R289A mutant; Sensor II arginine mutant; source: Rosetta2(DE3) pLysS, site-directed mutant (QuikChange) of pET9a-His6ChlD, purified
The assay is described as above.

The target in assay [3] is T3, His6-ChlD (E152Q), Walker B mutant (Synechocystis sp. PCC 6803, UniProt P72772 1-676, E152Q).
T3 construct: Magnesium chelatase subunit ChlD, Synechocystis sp; PCC 6803, with E152Q in the Walker B motif; Same construct as m2 with one point mutation; also called E152Q mutant; source: Rosetta2(DE3) pLysS, site-directed mutant (QuikChange) of pET9a-His6ChlD, purified
Described as above.

For assay [4], the target named is T4, His6-ChlD, wild type, of the magnesium chelatase of Synechocystis sp. PCC 6803 (Synechocystis sp. PCC 6803, UniProt P72772 1-676).
T4 construct: Magnesium chelatase subunit ChlD, Synechocystis sp; PCC 6803; also called wild type ChlD; wild type His6-ChlD; source: Rosetta2(DE3) pLysS, vector pET9a-His6ChlD, purified
Described as above.

Assay [5] concerns the target T5, His6-ChlD (K49A), Walker A mutant (Synechocystis sp. PCC 6803, UniProt P72772 1-676, K49A).
T5 construct: Magnesium chelatase subunit ChlD, Synechocystis sp; PCC 6803, with K49A in the Walker A motif; Same construct as m2 with one point mutation; also called K49A mutant; source: Rosetta2(DE3) pLysS, site-directed mutant (QuikChange) of pET9a-His6ChlD, purified
Briefly: pull-down; co-purification on Ni(II) chelating Sepharose through His6-ChlD; 2 μM ChlD and 2 μM ChlI, with nucleotide (methods: 5 mM ADP; legend: ATP), 15 mM MgCl2, 50 mM Tricine, 0.3 M glycerol, pH 7.9, room temperature; SDS-PAGE of the resin.

T4 sequence (P72772 whole entry): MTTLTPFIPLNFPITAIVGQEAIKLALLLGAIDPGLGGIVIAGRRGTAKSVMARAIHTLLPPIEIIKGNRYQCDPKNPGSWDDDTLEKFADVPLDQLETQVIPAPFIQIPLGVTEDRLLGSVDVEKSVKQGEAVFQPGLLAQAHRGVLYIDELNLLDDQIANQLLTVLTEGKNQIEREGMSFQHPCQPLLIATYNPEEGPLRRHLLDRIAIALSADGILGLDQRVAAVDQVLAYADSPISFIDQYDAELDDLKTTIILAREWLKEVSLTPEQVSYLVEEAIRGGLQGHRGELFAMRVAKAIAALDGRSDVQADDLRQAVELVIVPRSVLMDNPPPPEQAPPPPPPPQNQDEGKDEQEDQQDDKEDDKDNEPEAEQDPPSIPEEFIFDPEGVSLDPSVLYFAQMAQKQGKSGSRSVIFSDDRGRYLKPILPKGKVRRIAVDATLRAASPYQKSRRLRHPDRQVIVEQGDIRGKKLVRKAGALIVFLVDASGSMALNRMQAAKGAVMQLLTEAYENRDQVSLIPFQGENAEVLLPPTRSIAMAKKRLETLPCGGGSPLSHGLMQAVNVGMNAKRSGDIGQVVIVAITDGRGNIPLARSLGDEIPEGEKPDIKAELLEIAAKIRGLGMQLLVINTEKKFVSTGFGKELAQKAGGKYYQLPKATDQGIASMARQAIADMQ
T1 sequence (P72772 whole entry R208A): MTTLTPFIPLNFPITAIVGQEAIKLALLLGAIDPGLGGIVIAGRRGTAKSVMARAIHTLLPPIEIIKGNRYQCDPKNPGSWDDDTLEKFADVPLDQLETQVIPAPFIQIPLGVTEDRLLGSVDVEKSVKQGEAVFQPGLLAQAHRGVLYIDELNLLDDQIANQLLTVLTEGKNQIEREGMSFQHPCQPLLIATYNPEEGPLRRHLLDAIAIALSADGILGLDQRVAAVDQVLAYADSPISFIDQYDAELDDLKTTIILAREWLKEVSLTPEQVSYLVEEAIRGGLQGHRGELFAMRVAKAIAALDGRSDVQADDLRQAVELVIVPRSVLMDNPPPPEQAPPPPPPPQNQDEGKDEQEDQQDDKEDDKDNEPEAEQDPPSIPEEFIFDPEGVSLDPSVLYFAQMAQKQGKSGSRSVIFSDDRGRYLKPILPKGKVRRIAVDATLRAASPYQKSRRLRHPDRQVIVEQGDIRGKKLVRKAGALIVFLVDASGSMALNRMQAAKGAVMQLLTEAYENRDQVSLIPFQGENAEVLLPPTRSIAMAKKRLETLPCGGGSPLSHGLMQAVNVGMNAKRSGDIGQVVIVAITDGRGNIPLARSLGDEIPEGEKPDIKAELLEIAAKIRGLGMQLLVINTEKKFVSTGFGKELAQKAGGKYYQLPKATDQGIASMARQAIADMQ
T3 sequence (P72772 whole entry E152Q): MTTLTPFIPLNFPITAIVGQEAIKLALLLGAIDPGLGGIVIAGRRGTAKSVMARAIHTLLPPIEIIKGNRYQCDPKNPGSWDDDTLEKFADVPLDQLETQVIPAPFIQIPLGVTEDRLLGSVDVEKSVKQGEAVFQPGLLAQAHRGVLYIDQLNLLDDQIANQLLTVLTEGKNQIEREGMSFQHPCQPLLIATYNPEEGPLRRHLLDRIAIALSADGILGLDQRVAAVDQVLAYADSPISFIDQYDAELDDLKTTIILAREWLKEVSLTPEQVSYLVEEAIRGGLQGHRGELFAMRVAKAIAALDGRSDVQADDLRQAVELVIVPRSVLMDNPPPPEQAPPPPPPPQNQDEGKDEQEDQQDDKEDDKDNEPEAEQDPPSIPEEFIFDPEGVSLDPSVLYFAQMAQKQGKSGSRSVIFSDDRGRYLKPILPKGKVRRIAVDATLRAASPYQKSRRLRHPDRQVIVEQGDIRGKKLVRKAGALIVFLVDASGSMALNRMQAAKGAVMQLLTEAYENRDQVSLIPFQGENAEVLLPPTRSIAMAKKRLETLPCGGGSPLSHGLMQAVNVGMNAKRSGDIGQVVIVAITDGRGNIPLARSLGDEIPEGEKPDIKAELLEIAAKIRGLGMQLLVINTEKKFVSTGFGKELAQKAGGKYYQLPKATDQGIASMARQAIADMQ
T2 sequence (P72772 whole entry R289A): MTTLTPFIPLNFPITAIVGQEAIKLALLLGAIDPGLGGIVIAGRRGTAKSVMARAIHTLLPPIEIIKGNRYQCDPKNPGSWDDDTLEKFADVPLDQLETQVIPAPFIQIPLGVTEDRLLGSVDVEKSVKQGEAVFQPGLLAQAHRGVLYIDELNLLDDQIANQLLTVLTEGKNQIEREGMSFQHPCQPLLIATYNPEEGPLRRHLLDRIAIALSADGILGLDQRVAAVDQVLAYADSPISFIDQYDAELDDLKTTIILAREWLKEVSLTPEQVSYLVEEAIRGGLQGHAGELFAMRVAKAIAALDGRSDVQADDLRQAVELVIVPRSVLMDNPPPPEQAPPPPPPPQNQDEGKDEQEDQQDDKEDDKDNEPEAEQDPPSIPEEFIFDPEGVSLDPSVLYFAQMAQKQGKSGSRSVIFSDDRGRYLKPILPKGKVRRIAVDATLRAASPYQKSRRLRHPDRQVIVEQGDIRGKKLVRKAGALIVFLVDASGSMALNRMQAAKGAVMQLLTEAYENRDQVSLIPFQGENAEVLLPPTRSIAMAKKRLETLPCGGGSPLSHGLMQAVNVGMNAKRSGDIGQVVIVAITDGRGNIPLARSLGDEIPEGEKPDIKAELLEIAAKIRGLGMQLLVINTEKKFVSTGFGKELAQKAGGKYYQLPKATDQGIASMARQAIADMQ
T5 sequence (P72772 whole entry K49A): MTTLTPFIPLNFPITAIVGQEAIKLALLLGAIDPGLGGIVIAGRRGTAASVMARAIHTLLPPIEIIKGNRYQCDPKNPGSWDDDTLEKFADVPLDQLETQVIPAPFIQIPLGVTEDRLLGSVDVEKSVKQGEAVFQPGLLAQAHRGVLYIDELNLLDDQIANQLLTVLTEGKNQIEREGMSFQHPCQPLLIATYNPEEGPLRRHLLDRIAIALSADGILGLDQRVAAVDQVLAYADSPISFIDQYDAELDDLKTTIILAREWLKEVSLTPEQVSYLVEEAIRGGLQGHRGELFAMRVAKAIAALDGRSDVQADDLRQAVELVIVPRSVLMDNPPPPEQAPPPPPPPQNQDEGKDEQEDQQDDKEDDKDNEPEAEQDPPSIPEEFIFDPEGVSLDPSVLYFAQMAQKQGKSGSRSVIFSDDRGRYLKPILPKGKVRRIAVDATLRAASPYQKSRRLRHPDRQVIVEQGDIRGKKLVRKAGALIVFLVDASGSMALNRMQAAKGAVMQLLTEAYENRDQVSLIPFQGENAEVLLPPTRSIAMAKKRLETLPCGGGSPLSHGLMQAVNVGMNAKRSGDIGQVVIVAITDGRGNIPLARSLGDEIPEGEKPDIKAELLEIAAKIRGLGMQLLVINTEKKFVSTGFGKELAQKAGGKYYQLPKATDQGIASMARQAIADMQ

B1: ChlI protein of the magnesium chelatase of Synechocystis sp. PCC 6803 (natural protein, UniProt P51634 1-357, looked up)
chain: MTATLAAPSKTRRVVFPFTAIVGQDEMKLALLLNVIDPKIGGVMIMGDRGTGKSTTIRALADLLPEIEVVANDPFNSSPSDPEMMSEEVRIRVDSQEPLSIVKKKVTMVDLPLGATEDRVCGTIDIEKALSEGVKAFEPGLLAKANRGILYVDEVNLLDDHLVDVLLDSAAGGWNTVEREGISIRHPARFVLVGSGNPEEGELRPQLLDRFGMHAEIRTVREPELRVKIVEQRTEFDQNPHPFCDQYQTEQEALQAKIVNAQNLLPQVTIDYDYRVKVSEVCAELDVDGLRGDIVTNRAAKALAAFEGRTEVTVDDISRVIVLCLRHRLRKDPLESIDSGSKVEKVFKRVFGVVDEA
notes: Magnesium chelatase subunit ChlI, Synechocystis sp; PCC 6803; no tag is named for ChlI; also called wild type ChlI; source: BL21(DE3), vector pET9a-ChlI, autoinducing medium ZYM-5052, purified
Turning to B1, the Kd in assay [1] was found to be 14 nM; in assay [2] it was 52 nM; in assay [3], 0.35 nM; in assay [4], 0.17 nM. Also, the “nd (concentration of binding sites for ChlI)” value worked out at 0.2 µM in assay [1], 0.19 µM in assay [2], 0.24 µM in assay [3] and 0.23 µM in assay [4]. Moreover, in assay [5], the binding result is “binds”.
